Results: patent publication CN101223191A (AGENSYS INC, dated 2008)
Values joined by “and” are separate entries in the source; they are usually repeats but may differ in a detail not shown here. Equal values may be shown once.

Key:
[1] = biological target: T1, human PSCA (prostate stem cell antigen, PSCA v.1) (human, UniProt O43653 12-83); experiment: FACS-based affinity on cell-surface PSCA (LAPC9AI cells)
T1 construct: The whole entry is named; also called PSCA变体1; 细胞表面PSCA
T1 sequence: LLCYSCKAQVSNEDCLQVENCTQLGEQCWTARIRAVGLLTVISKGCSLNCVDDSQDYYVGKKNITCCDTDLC

[2] = biological target: T1, human PSCA (prostate stem cell antigen, …); experiment: FACS saturation binding on LAPC9AI cells, one-site binding (hyperbola) fit, Graphpad Prism

B1: anti-PSCA MAb H1-1.10 (antibody, V domains shown)
VH: QLQESGPGLVKPSQTLSLTCTVSGGSISSGGYYWSWIRQHPGKGLEWIGYIYYSGSTYYNPSLKSRVTISVDTSKNQFSLKLSSGTAADTAVYYCARDHITMVRGVPKGMDVWGQGTTVTVSS
VL: QLTQSPSSLSASVGDRVTITCRASQSISRHLNWYQQKPGKAPKFLIYVASSLQSGVPSRFSGSGSGTDFTLTISSLQPEDFATYFCQQSYSIPRTFGQGTKVEIKR
notes: Fully human IgG1 (gamma 1) / kappa antibody from XenoMouse immunised with B300.19/PSCA cells; tested as hybridoma supernatant or purified antibody; also called PSCA H1-1.10; H1/1.10.1.1
Q: For B1, which Kd [1] is on record?
A: 0.6 nM

Q: And the Kd [2]?
A: 0.593 nM and 0.636 nM
